Results on 3 substances are retold here after publication PMC2887905.

The target of assay [1] is gp41 (ARP671, spanning the entire extracellular domain of HIV-1 gp41MN) (HIV-1 (MN)) (UniProt P05877). The assay is described as follows: SPR; gp41 immobilised on a biosensor; data not shown.
In assay [2] the target is Recombinant HIV-1 gp120 (LAV, CXCR4 monotropic, identical to NL4-3 gp120, glycosylated) (HIV-1 (LAV; identical to NL4-3 gp120)) (UniProt P03377).

UniProt P05877, sequence (P05877 32-685): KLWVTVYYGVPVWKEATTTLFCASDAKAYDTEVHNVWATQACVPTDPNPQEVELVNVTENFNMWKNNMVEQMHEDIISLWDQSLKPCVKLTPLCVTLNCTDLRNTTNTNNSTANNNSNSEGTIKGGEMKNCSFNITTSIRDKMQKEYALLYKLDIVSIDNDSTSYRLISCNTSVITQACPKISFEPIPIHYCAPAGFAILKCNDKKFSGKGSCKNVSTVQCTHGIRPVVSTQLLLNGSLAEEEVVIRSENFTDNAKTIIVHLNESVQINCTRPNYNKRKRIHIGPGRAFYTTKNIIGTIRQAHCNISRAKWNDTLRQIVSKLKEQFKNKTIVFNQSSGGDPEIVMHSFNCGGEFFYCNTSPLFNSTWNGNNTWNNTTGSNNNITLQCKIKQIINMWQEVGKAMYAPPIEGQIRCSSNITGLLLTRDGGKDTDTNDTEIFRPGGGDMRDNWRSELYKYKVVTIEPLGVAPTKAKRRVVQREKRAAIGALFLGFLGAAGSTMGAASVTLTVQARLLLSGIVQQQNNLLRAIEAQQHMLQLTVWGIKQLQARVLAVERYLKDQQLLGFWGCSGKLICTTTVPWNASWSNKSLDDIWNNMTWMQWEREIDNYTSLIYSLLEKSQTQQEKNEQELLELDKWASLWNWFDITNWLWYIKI

In turn, “HOCl-modified bovine serum albumin (protein:HOCl molar ratio 1:1000) (from UniProt P02769 25-607)” returned a response units in assay [1] of under 5 RU. In addition, in assay [2], the neutralisation of HIV-1 NL4-3 infection, p24 antigen ELISA on day 5, dose-dependent, value at 20 μg/ml was over 90%.
With “HOCl-modified human serum albumin (protein:HOCl molar ratio 1:1000) (from UniProt P02768 25-609)”, the response units in assay [1] is under 5 RU. Moreover, the neutralisation of HIV-1 NL4-3 infection, p24 antigen ELISA on day 5, dose-dependent, value at 20 μg/ml in assay [2] is over 95%.
Turning to “HOCl-modified mouse serum albumin (protein:HOCl molar ratio 1:1000) (from UniProt P07724 25-608)”, the response units in assay [1] is under 5 RU. Besides, the neutralisation of HIV-1 NL4-3 infection, p24 antigen ELISA on day 5, value at 50 μg/ml in assay [2] is over 90%.
